Experimental data: the supplement of paper PMC7125110
± gives the standard error. Fewer inactive variants are shown than the library holds.

B1: glmS ribozyme (parent)
chain: AUAAAAGCGCCAGAACUACAGAAAUGUAGUUGACGAGGAGGAGGUUUAUCGAAUUUUCGGCGGAUGCCUCCAAA

Variants of: B1
Experiment: self-cleavage kobs at 640 uM GlcN6P; higher = faster cleavage; RNA array
Conditions: with glucosamine-6-phosphate
Summary of the method: (§1)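 Using a hybridised Cy3 probe at 37 °C, barcoded ribozyme variants transcribed in situ by E. coli RNA polymerase on sequenced MiSeq chips were monitored across tiles imaged over ~14 h. The flow contained glucosamine-6-phosphate from 40 μM to 10 mM in HEPES/KCl/Mg(OAc)2 buffer. Signals were normalised to baseline and to non-cleaving reference variants before per-tile medians were fit to one- or two-exponential decays to yield kobs. Weighted Michaelis–Menten fits across concentrations gave kcat and KM.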

Variant | self-cleavage kobs at 640 uM GlcN6P [s⁻¹]
AUAAAAGCGCCAGAACUACAGAAAUGUAGUUGACGAGGAAGUGGUUUUUCGAAUUUUCGGCGGAUGCCUCCAAA | < 1e-05
AUAAAAGCGCCAGAACUACAGACAUGUAGUUGACGAGGAGGAGGUUUAUCGAAUUUUCGGCGGAUGCCACCAAA | 0.000292 ± 0.0001
AUAAAAGCGCCACAACUACAGAAAUGUAGUUGACGAGGAGGAGGUUUUUCGAUUUUUCGGGGGAUGCCUCCAAA | < 1e-05
AUAAAAGGGCCAAAACUACAGAAAUGUAGUUGACGAGGAGGAGGUUUAUCGAAUUCUCGGCGGAUGCCUCCAAA | < 1e-05
AUAAAAGCGCCAGAACUACAGAAAUGUAGUUGACGAGGAGGAGGUUUAUCGAUUUUUUGGCGGAUGUCUCCAAA | 9.41e-05 ± 4.6e-05
AUAAAAGAACCAGAGCUACAGAAAUGUAGUUGACGAGGAGGAGGUUUCUCGAAUUUACGACGGAUGCCUCCAAA | < 1e-05
AUAAAAGCGCCAGAACUACAGAAAUGUAGUUGACGAGGAGGAGGUUUAUCCAAUUUUCGGCGGAUGGCUUCAAA | < 1e-05
AUAAAAGUUCCAGAACUACAGAAAUGUAGUUGACGAGGAGGAGGUUUAUCGAAUUUUCGGCGGAUGCAUCCAAA | < 1e-05
AUAAAAGCGCCAGAACUACAGAAAUGUAGUUGACGUGGAGGAGGUUUAUCGAGUUUUUGGCGGAUGGCUACAAA | 0.000184 ± 4.8e-05
AUAAAAGCGCCAGAACUACAGAAAUGUAGUUGACGAGAAGGAGGUUUAUCGAAUUUUCGGCUGAUCCCUCCAAA | < 1e-05
AUAAAAGCGCCAGAACUACAGAAAUGUAGUUGACGAGGAGGAGGUUUAUCGAAUUUUGUGCGGAUGCGUCCAAA | 4.54e-05 ± 1.7e-05
AUAAAAGCGCUAGAACUACAGAAAUGUAGUUGACGAGGAGCAGGUUUAUCGAAGUUUCCGCGGAUGCCUCCAAA | < 1e-05
AUAAAAGCGCCAGAACUACAGAAAUGUAGUUGACGAGGAGGAGGCUUAUAGAAUUCUCGGCGGAUGCCUCCAAA | < 1e-05
AUAAAAGCGCGAGAACUACAGAAAUGUAGUUGACGAGGAGGAGGUUUAUCGAUUGUUCGGCGGAUGGCUCCAAA | 0.000112 ± 4.8e-05
AUAAAAGCGCCAUAACUACAGAAAUGUAUUUAACGAGGAGGAGGUUUAUCGAAUUUUCGGCGGAUGCCUCCAAA | 0.000242 ± 7e-05
AUAAAAGCGCCUGAACUACAGAAAUGUAGUUGACGAGGAGGAGGUUUAUCGUAUUUUCGACGGAUGCCUCCAAA | < 1e-05
AUAAAAGCGCCAGAACUACAGAAAUGUACUUGACGAGGAGGAGGUUUAUCGAGUUUUCGGCGGAUGCAUCCAAA | 0.000139 ± 5.9e-05
AUAAAAGCGCCAGAACUACAGAAAUGUAGUAGACGAGGAGGAGGUGUGUCGAAUUUUCGGCGGAUGCCUCCAAA | < 1e-05
AUAAAAGCGCCAGAACUACAGAAAUGUAUUUGUCGAGGAGGAGUUUUAUCGUAUUUUCGGCGGAUGCCUCCAAA | < 1e-05
AUAAAAGCGCCAGAACUACAGAAAUGUAGUUGACGGGGCGGAGGUUGAUCGAAUUUUCGGCGGAUGCCUCCAAA | < 1e-05
AUAAAAGCGCCAGAACUACAGAAAUGUAAUUGACGAGGAGGAGGUUUAUGGAAUUUUCGGCGGAUGCCUCAAAA | 0.000129 ± 3.4e-05
AUAAAAGCUCCAGACCUACAGAAAUGUAGUUGACGAGGAGGUGGUUUAUCGAAUUUUCGGCGGAUGCCUCCAAA | < 1e-05
AUAAAAGCGCAAGCACUACAGAAAUGUAGUUGACGAGGAGGAGGUUUAUCGUAUUUUCGGCGGAUGCCUCCAAA | < 1e-05
AUAAAAGCGCCAAAACUACAGAAAUGUAGUUGACGAGGAGGAGGAUUAACGAAUUUUCGGCGGAUGCCUCCAAA | < 1e-05
AUAAAUGCGCCGGAACUACAGAAAUGUAGUUGACGAGGAGGAGGUUUAUCGAAUUUUCCGCGGAUGACUCCAAA | < 1e-05
AUAAAAUCUCCAGAACUACAGAAAUGUAGUAGACGAAGAGGAGGUUUAUCGCAUUUUCGGCGGAUGUCCCCAAA | < 1e-05
AUAAAAGCGCCAGAACUACAGAAAUGUAGUUGACGAGGAUGAGGUUUAUAAAAUUUUCGGCGGAUGCCUCCAAA | < 1e-05

Variants of: B1
Experiment: self-cleavage kobs at 2500 uM GlcN6P; higher = faster cleavage; RNA array
Conditions: with glucosamine-6-phosphate
Summary of the method: as §1

Variant | self-cleavage kobs at 2500 uM GlcN6P [s⁻¹]
AUAAAAGCGCCAGAACUACAGACAUGUAGUUGACGAGGAGGAGGUUUAUCGAAUUUUCGGCGGAUGCCACCAAA | 0.000135 ± 2.9e-05
AUAAAAGCGCCAGAACUACAGAAAUGUAGUUGACGAGGAGGAGGUUUAUCCAAUUUUCGGCGGAUGGCUUCAAA | < 1e-05
AUAAAAGUUCCAGAACUACAGAAAUGUAGUUGACGAGGAGGAGGUUUAUCGAAUUUUCGGCGGAUGCAUCCAAA | < 1e-05
AUAAAAGCGCCAGAACUACAGAAAUGUAGUUGACGUGGAGGAGGUUUAUCGAGUUUUUGGCGGAUGGCUACAAA | 0.00115 ± 0.00026
AUAAAAGCGCCAGAACUACAGAAAUGUACUUGACGAGGAGGAGGUUUAUCGAGUUUUCGGCGGAUGCAUCCAAA | 9.57e-05 ± 3.7e-05
AUAAAAGCGCCAGAACUACAGAAAUGUAGUUGACGGGGCGGAGGUUGAUCGAAUUUUCGGCGGAUGCCUCCAAA | < 1e-05
AUAAAAGCGCCAGAACUACAGAAAUGUAAUUGACGAGGAGGAGGUUUAUGGAAUUUUCGGCGGAUGCCUCAAAA | 0.000111 ± 2.3e-05
AUAAAAGCGCCAAAACUACAGAAAUGUAGUUGACGAGGAGGAGGAUUAACGAAUUUUCGGCGGAUGCCUCCAAA | < 1e-05

Variants of: B1
Experiment: self-cleavage kobs at 10000 uM GlcN6P; higher = faster cleavage; RNA array
Conditions: with glucosamine-6-phosphate
Summary of the method: as §1

Variant | self-cleavage kobs at 10000 uM GlcN6P [s⁻¹]
AUAAAAGCGCCAGAACUACAGACAUGUAGUUGACGAGGAGGAGGUUUAUCGAAUUUUCGGCGGAUGCCACCAAA | 9.83e-05 ± 4.3e-05
AUAAAAGCGCCAGAACUACAGAAAUGUAGUUGACGGGGCGGAGGUUGAUCGAAUUUUCGGCGGAUGCCUCCAAA | < 1e-05
